According to patent publication US20250066483A1:

Molecular target: bovine PD-1-His (bovine)
Test: SPR (Biacore X100), bovine PD-1-His immobilised on a CM5 chip, antibody as analyte, single kinetics, 3 repeats

Kd: 12.2 nM
koff: 0.000215 s⁻¹
kon: 18400 M⁻¹ s⁻¹
B1: rat anti-bovine PD-1 monoclonal antibody 5D2 (antibody, V domains shown)
VH: QVQLKETGPGLVQPTQTLSITCTVSGFSLTSYYIQWVRQTPGKGLEWMGFIRSGGSTEYNSEFKSRLSINRDTSKNQVFLKMNSLKTEDTGVYYCARTSSGYEGGFDYWGQGVMVTVSS
VL: DVVLTQTPVSLSVTLGDQASISCRSSQSLEYSDGYTYLEWYLQKPGQSPQLLIYGVSNRFSGVPDRFIGSGSGTDFTLKISRVEPEDLGVYYCFQATHDPDTFGAGTKLELK
